The source of these data is patent publication US8216581 (University of Pennsylvania, dated 2012).

Changes are numbered by the printed parent chain. Names and notes keep the numbering of the source.

One assay has as its target T1, H44L4 full-length IgG.
T1 construct: also called autoanti-GPIIb/IIIa
The experiment in a line: peptide ELISA (scheme of FIG. 8). A general note: In an ELISA, binding on a coated surface is turned into a signal by an enzyme label.

Assay [1] deals with T2, GPIIb/IIIa on intact human platelets (human, UniProt P08514 32-1039; P05106 27-788).
T2 construct: whole, on cells; also called platelet GPIIb/IIIa; αIIbβ3
Nature of the assay: immunoprecipitation from biotinylated platelets; agrees with ELISA and Glanzmann platelet flow cytometry.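 Also: precipitated biotin-labelled platelet membrane proteins visualized with biotinylated horseradish peroxidase-avidin complexes, scored for polypeptides behaving like GPIIb/IIIa.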
Text: Precipitated, biotinylated platelet membrane proteins were detected with biotinylated horseradish peroxidase-avidin complexes (ABC Staining Kit, Pierce).

Assay [2] concerns the target T3, GPIa/IIa on a stable K562 cell line (UniProt P17301 30-1181; P05556 21-798, limits assumed).
T3 construct: whole, on cells; also called K562 cell line expressing GPIa/IIa
The experiment in a line: flow cytometry on K562 cells expressing GPIa/IIa.

B1: P73-10 (peptide)
peptide: CTHWWRPAC
As to B1, the binding result with H44L4 full-length IgG is given as “binds”.

B2: P3-4 (peptide)
peptide: CPSLAHRWC
notes: From the Cys-7-mer-Cys constrained phage library; also called C7C constrained peptide
For the molecule B2, the binding result in the assay with H44L4 full-length IgG is on record as “binds”.

B3: H45L61 (Fab, V domains shown)
VH: QVQLVESGGGVVQPGRSLRLSCAASGFTFSNFNMHWVRQAPGKGLEWVALISYDGSSKYYTDSVKGRFTISRDNSKNTLYLQMNSLRPEDTAVYYCMVVGAFDYWGQGTLVTVSS
VL: EIVLTQSPGTLSLSPGERATLSCRASQSVGSSYLAWYQQKPGQAPRLLIYGVSSRATGIPDRFSGSGSGTDFTLTISRLEPEDFAVYYCQQYGGSPLTFGGGTTVEIK
notes: Soluble Fab, clone A
For the molecule B3, the binding result in assay [1] and in assay [2] was “no binding” each time.

B4: H47L63 (Fab, V domains shown)
VH: B3 VH with A24T, S57N, Y59N, T61A, D62N, Y80F, P88V
VL: EIVLTQSPGTLSLSPGERATLSCRASQSVGNNYLAWYQQRPGRAPRLVMYDPSSRATGIPDRFSGSGSGTDFTLTISRLEPEDFAVYYCQQYGNSPPTFGGGTKVEIK
notes: Soluble Fab, clone A
As for B4, the binding result in assay [1] and in assay [2] was “no binding” throughout.

B5: H47L64 (Fab, V domains shown)
VH: B3 VH with A24T, S57N, Y59N, T61A, D62N, Y80F, P88V
VL: EIVLTQSPDTLSLSPGDRATLSCRASQSVSNYLAWYQQKAGRAPSLLIYGTSRRATDIPDRFSGSGSGTDFTLTISRLEPEDSAVYYCQQYGSASLTFGGGTKVEIK
notes: Soluble Fab, clone A; also called putative GPIb/IX-specific Fab
With B5, the binding result in assay [1] and in assay [2] was “no binding” in each case.

B6: P4-2a (peptide)
peptide: CIVPWFFHC
notes: as for B2
Take B6: the binding result in the assay with H44L4 full-length IgG is listed as “binds”.

B7: P74-4 (peptide)
peptide: CVVPWFFHC
In the case of B7, the binding result in the assay with H44L4 full-length IgG is on record as “binds”.

B8: H10L122 (Fab, V domains shown)
VH: QVQLVQSGAEVKKPGASVKVSCKASGYSFSNYYMHWVRQAPGEGLEWMGIINPKGGTTSYAQKFQGRVTIAADKFTNSAYMEPSSLRYEDTAVYFCARAKFSWSPDIWGQGTVVTVSS
VL: QAVVTQEPSLTVSPGGTVTLTCDSSTGAVTSGHYPYWLQQKPGQAPRTLIYDTHNKHSWTPGRFSGSLLGGKAALTLSGAQPEDEAEYYCSLSYSAVWVFGGGTKLTVL
notes: Soluble Fab
Consider B8, for which the binding result in assay [1] and in assay [2] was “no binding” each time.

B9: P123-10 (peptide)
peptide: WSLHTLGLPFVF
In the case of B9, the binding result in the assay with H44L4 full-length IgG is given as “binds”.

B10: P4-12 (peptide)
peptide: DLRLNSLIVPWS
notes: From the 12-mer linear phage library; also called 12-mer linear peptide
For the molecule B10, the binding result in the assay with H44L4 full-length IgG was “binds”.

B11: P124-8 (peptide)
peptide: KHSMPINAILPP
For B11, in the assay with H44L4 full-length IgG, the binding result was “binds”.

B12: P73-11 (peptide)
peptide: CLVPWMFHC
Regarding B12, the binding result with H44L4 full-length IgG is recorded as “binds”.

B13: P74-5 (peptide)
peptide: CVTSKPHTC
Consider B13, for which the binding result in the assay with H44L4 full-length IgG is on record as “binds”.

B14: P73-9 (peptide)
peptide: CIIPFMFQC
For B14, in the assay with H44L4 full-length IgG, the binding result was “binds”.

B15: H29L104 (Fab, V domains shown)
VH: EVQLVESGGGLVKPGGSLRLSCAASGFTFSSYSMNWVRQAPGKGLEWVSSISSSSSYIYYADSVKGRFTISRDNAKNSLYLQMNSLRAEDTAVYYCARDHPNYYDSSGLFDYWGQGTLVTVSS
VL: SSELTQDPAVSVALGQTVRITCQGDSLRSYYASWYQQKPGQAPVLVIYGKNYRPSGIPDRFSGSSSGNTASLTITGAQAEDEADYYCNSRDSSGNHWVFGGGTKLTVL
notes: Soluble Fab
For the molecule B15, the binding result in assay [1] and in assay [2] was “no binding” in each case.

B16: H37L50 (Fab, V domains shown)
VH: QVQLVESGGGVVQPGRSLRLSCAASGFTFSNYAMHWVRQAPGKGLEWVAVISYDGSNKYYADSVKGRFTISRDNSKNTLYLQMNSLRPEDTAVYYCARGGVAAFDYWGQGTLVTVSS
VL: not shown
notes: Soluble Fab, clone B
On to B16, for which the binding result in assay [1] and in assay [2] was “no binding” throughout.

B17: H38L74 (Fab, V domains shown)
VH: B16 VH with A102G
VL: EIVLTQSPATLSLSPGERATLSCRASQSVSSYLAWYQQKPGQAPRLLIYDASNRATGIPARFSGSGSGTDFTLTISSLEPEDFAVYYCQQRSNWPTFGGGTKVEIK
notes: Soluble Fab
For the molecule B17, the binding result in assay [1] and in assay [2] was “no binding” in each case.

B18: H38L76 (Fab, V domains shown)
VH: B16 VH with A102G
VL: not shown
notes: Soluble Fab
Take B18: the binding result in assay [1] and in assay [2] was “no binding” in each case.

B19: H37L92 (Fab, V domains shown)
VH: B16 VH
VL: QSALTQPASVSGSPGQSITISCTGTSSDVGGYKYVSWYQQHPGKAPKLIIYDVTNRPSGVSKRFSGSKSGNTASLTISGLQAEDEADYYCSSYTSRSTPVFGGGTKVTVL
notes: Soluble Fab
As for B19, the binding result in assay [1] and in assay [2] was “no binding” throughout.

B20: H38L55 (Fab, V domains shown)
VH: B16 VH with A102G
VL: DIVMTQSPLSLPVTPGEPASISCRSNQSVLHSNGRHYLDWYLQKPGQSPQLLIYMVFNRASGVPDRFSGSGSGTDFTLKISRVESEDVGVYYCMQAQQTPVTFGQGTRLDIK
notes: Soluble Fab
On to B20, for which the binding result in assay [1] and in assay [2] was “no binding” throughout.

B21: H38L72 (Fab, V domains shown)
VH: B16 VH with A102G
VL: EIVLTQSPATLSVSPGERATLSCRASQSVSSYLAWYQQKPGQAPRLLIYDASNRATGIPARFSGSGSGTDFTLTISSLEPEDFAVYYCQQRSNWPLTFGQGTKVEIK
notes: Soluble Fab
On to B21, for which the binding result in assay [1] and in assay [2] was “no binding” in each case.

B22: H36L76 (Fab, V domains shown)
VH: B16 VH with N31S
VL: not shown
notes: Soluble Fab, clone B
With B22, the binding result in assay [1] and in assay [2] was “no binding” throughout.

B23: H38L75 (Fab, V domains shown)
VH: B16 VH with A102G
VL: B21 VL with V13L, S30R, Y32F, A51T, N53K, A55P, A60D, N93S, Q100G, K103T
notes: Soluble Fab
As for B23, the binding result in assay [1] and in assay [2] was “no binding” each time.

B24: P4-7 (peptide)
peptide: FPLNTIIHSAVY
notes: as for B10
For the molecule B24, the binding result with H44L4 full-length IgG is “binds”.

B25: P74-3 (peptide)
peptide: CLIPWMFNC
Turning to B25, the binding result with H44L4 full-length IgG was “binds”.

B26: P74-9 (peptide)
peptide: CTWLPYPYC
On to B26, for which, in the assay with H44L4 full-length IgG, the binding result is “binds”.

B27: P123-11 (peptide)
peptide: LPFDTIIKPWPV
Turning to B27, in the assay with H44L4 full-length IgG, the binding result is “binds”.
